Source: FireProtDB
Where “and” joins values, the source holds several entries; their conditions need not be identical. Identical values can stand only once.

Details: whole UniProt chain shown
[1] = Mus musculus, pH 7.2, 25 °C, Urea, Fluorescence, Sodium phosphate 20 mM, Sodium chloride 100 mM, reversible: Yes
[2] = Oryza sativa subsp. japonica, pH 7, Thermal, DSC, Potassium phosphate buffer, NaCl, reversible: yes
[3] = Ovis aries, pH 7, 25 °C, GdnHCl, CD, HEPES 20 mM, reversible: yes
[4] = Ovis aries, pH 7, 25 °C, GdnHCl, Fluorescence, HEPES 20 mM, reversible: yes
[5] = Paracoccus pantotrophus, pH 7, 25 °C, Urea, CD, Sodium phosphate 20 mM, Na2SO4 0.5 M, reversible: yes
[6] = Pectobacterium carotovorum, pH 7.4, Thermal, DSC, CGH-10, reversible: no
[7] = Rattus norvegicus, pH 7.5, Thermal, Fluorescence, TEA 50 mM, transition: 3
[8] = Saccharolobus solfataricus (strain ATCC 35092 / DSM 1617 / JCM 11322 / P2), pH 7, Thermal, DSC, Unknown, reversible: yes
[9] = Saccharomyces cerevisiae (strain ATCC 204508 / S288c), pH 6, 20 °C, GdnHCl, Fluorescence, Sodium phosphate 0.1 M, reversible: yes
[10] = Saccharomyces cerevisiae (strain ATCC 204508 / S288c), pH 6, Thermal, DSC, Sodium phosphate 0.1 M, KCl 0.05 M, reversible: yes (70-80%)
[11] = Saccharomyces cerevisiae (strain ATCC 204508 / S288c), pH 7.2, 20 °C, GdnHCl, Fluorescence, Sodium phosphate 0.1 M
[12] = Saccharomyces cerevisiae (strain ATCC 204508 / S288c), pH 6, Thermal, Absorbance, Sodium phosphate 100 mM, reversible: yes
[13] = Saccharomyces cerevisiae (strain ATCC 204508 / S288c), pH 8.5, Thermal, DSC, Tris 0.05 M, reversible: no

B1: Adapter molecule crk wild type, Q64010 (protein)
chain: MAGNFDSEERSSWYWGRLSRQEAVALLQGQRHGVFLVRDSSTSPGDYVLSVSENSRVSHYIINSSGPRPPVPPSPAQPPPGVSPSRLRIGDQEFDSLPALLEFYKIHYLDTTTLIEPVARSRQGSGVILRQEEAEYVRALFDFNGNDEEDLPFKKGDILRIRDKPEEQWWNAEDSEGKRGMIPVPYVEKYRPASASVSALIGGNQEGSHPQPLGGPEPGPYAQPSVNTPLPNLQNGPIYARVIQKRVPNAYDKTALALEVGELVKVTKINVSGQWEGECNGKRGHFPFTHVRLLDQQNPDEDFS
- denaturant m value [1]: 0.66 kcal/mol/M
- unfolding free energy [1]: 3.33 kcal/mol

B2: Granulocyte-macrophage colony-stimulating factor wild type, P01587 (protein)
chain: MWLQNLLFLGIVVYSLSAPTRSPITVTRPWKHVEAIKEALNLLDDMPVTLNEEVEVVSNEFSFKKLTCVQTRLKIFEQGLRGNFTKLKGALNMTASYYQTYCPPTPETDCETQVTTYADFIDSLKTFLTDIPFECKKPGQK
- unfolding free energy (Mus musculus, pH 9, 4 °C, Urea, CD, Tris-glycine 50 mM, reversible: yes): 5.78 kcal/mol

B3: Cyanovirin-N wild type, P81180 (protein)
chain: LGKFSQTCYNSAIQGSVLTSTCERTNGGYNTSSIDLNSVIENVDGSLKWQPSNFIETCRNTQLAGSSELAAECKTRAQQFVSTKINLDDHIANIDGTLKYE
- Tm (Nostoc ellipsosporum, pH 6, Thermal, CD, Sodium phosphate 10 mM): 48.5 °C

B4: Protein CutA 1, chloroplastic wild type, Q109R6 (protein)
chain: MPLLPSPLGSLSAAATAAPRRAAAAAGLSPLLLRRRAPIAGALLFLSLGAFAGVRSLSSSASARMESTSTTVPSIVVYVTVPNKEAGKRLAGSIISEKLAACVNIVPGIESVYWWEGKVQTDAEELLIIKTRESLLDALTEHVKANHEYDVPEVIALPIKGGNLKYLEWLKNSTRES
- Tm [2]: 97.3 °C
- unfolding enthalpy (calorimetric) [2]: 347 kcal/mol
- unfolding free energy [2]: 0.79 kcal/mol
- denaturant midpoint (higher = more stable) (Oryza sativa subsp. japonica, pH 8, 37 °C, GdnHCl, CD, Tris-HCl buffer, NaCl, transition: 2, reversible: yes): 2.3 M

B5: Pyridoxal kinase wild type, P82197 (protein)
chain: MEEECRVLSIQSHVVRGYVGNRAATFPLQVLGFEVDAVNSVQFSNHTGYSHWKGQVLNSDELQELYDGLKLNHVNQYDYVLTGYTRDKSFLAMVVDIVQELKQQNPRLVYVCDPVMGDQRNGEGAMYVPDDLLPVYREKVVPVADIITPNQFEAELLTGRKIHSQEEALEVMDMLHSMGPDTVVITSSNLLSPRGSDYLMALGSQRTRAPDGSVVTQRIRMEMHKVDAVFVGTGDLFAAMLLAWTHKHPNNLKVACEKTVSAMHHVLQRTIKCAKAKSGEGVKPSPAQLELRMVQSKKDIESPEIVVQATVL
- denaturant m value [3]: 2.41 kcal/mol/M
- unfolding free energy [3]: 1.55 kcal/mol
- denaturant m value [4]: 2.9 kcal/mol/M
- unfolding free energy [4]: 1.5 kcal/mol

B6: Amicyanin wild type, P22364 (protein)
chain: MISATKIRSCLAACVLAAFGATGALADKATIPSESPFAAAEVADGAIVVDIAKMKYETPELHVKVGDTVTWINREAMPHNVHFVAGVLGEAALKGPMMKKEQAYSLTFTEAGTYDYHCTPHPFMRGKVVVE
- Tm (Paracoccus denitrificans, pH 7.5, Thermal, CD, Potassium Phosphate Buffer 100 mM): 60 °C and 55 °C
- Tm (Paracoccus denitrificans, pH 7.5, Thermal, absorbance, Potassium Phosphate Buffer 10 mM): 66.4 °C

B7: Pseudoazurin wild type, P80401 (protein)
chain: MFHHSLAAAAAALLALAAPGFAATHEVHMLNKGESGAMVFEPAFVRAEPGDVINFVPTDKSHNVEAIKEILPEGVESFKSKINESYTLTVTEPGLYGVKCTPHFGMGMVGLVQVGDAPENLDAAKTAKMPKKARERMDAELAQVN
- denaturant m value [5]: 1.87 kcal/mol/M
- unfolding free energy [5]: 6.88 kcal/mol

B8: Pectate lyase wild type, Q47471 (protein)
chain: MFKYLTPIFLCTAAFSFQAQADDTMLMLLKKDNATYLSWSTDAGNVVRQDVYRSTSNNQAGSEKIAELNSTDRTFTDLTANPKSDYWYWVDTVSSNNNVQKSNAAQTAPAPLRAAPLKAASSECKAGAVIKDKTVDCGGITLGLSCTGDSDKQPPVITLENATIKNLRISEKGGSDGIHCKSGNCRIENVIWEDVCEDAATNLGKTMTIVGGVAHNTTNGPGGKPDKVLQQNAKNSHTIVQGNFTLTGQHGKLWRSCGDCTNNGGPRNLTIISATVNGTIDSIAGVNRNFGDVAEIRDLRIKNYKAGNPKICEEFKGIEKGKGKTEKYGEFWDSKNCKVSRSNVKAL
- unfolding free energy (Pectobacterium carotovorum, pH 7.4, 25 °C, GdnHCl, DSC, CGH-10, reversible: no): 8.7 kcal/mol
- Tm [6]: 81.1 °C
- unfolding enthalpy (calorimetric) [6]: 102 kcal/mol

B9: wild type, Q88HV5 (protein)
chain: MPFQQGLLATPVPAHARHLFFTLQSPEALPAALDALLPQVDGKQLLLGVGAPLAKALGREIPGLRPFPLLDAAVENPSTQHALWLWLRGDERGDLLLRTQALEQALAPALSLADSVDGFLHRGGHDLTGYEDGTENPTDEEAVQAAIAADGSSFAAFQLWKHDLQYFKSLPQADQDNIIGRRLSDNEELDDAPASAHVKRTAQESFEPEAFMVRRSVSWADQRGAGLAFVALGKSFEAFEVQLRRMSGLEDGIIDGLYRFSRPLTGGYYWCPPMSETGVDLSPLLRA
- Tm (Pseudomonas putida (strain ATCC 47054 / DSM 6125 / CFBP 8728 / NCIMB 11950 / KT2440), pH 7.6, Fluorescence spectroscopy): 65 °C

B10: T-cell surface antigen CD2 wild type, P08921 (protein)
chain: MRCKFLGSFFLLFSLSSKGADCRDSGTVWGALGHGINLNIPNFQMTDDIDEVRWERGSTLVAEFKRKMKPFLKSGAFEILANGDLKIKNLTRDDSGTYNVTVYSTNGTRILNKALDLRILEMVSKPMIYWECSNATLTCEVLEGTDVELKLYQGKEHLRSLRQKTMSYQWTNLRAPFKCKAVNRVSQESEMEVVNCPEKGLPLYLIVGVSAGGLLLVFFGALFIFCICKRKKRNRRRKGEELEIKASRMSTVERGPKPHSTQASAPASQNPVASQAPPPPGHHLQTPGHRPLPPSHRNREHQPKKRPPPSGTQVHQQKGPPLPRPRVQPKPPCGSGDVSLPPPN
- Tm [7]: 24.9 °C
- heat capacity change of unfolding [7]: 0.5 kcal/mol/K and 0.98 kcal/mol/K
- unfolding enthalpy (van 't Hoff) [7]: 14.5 kcal/mol

B11: D-amino-acid oxidase wild type, P80324 (protein)
chain: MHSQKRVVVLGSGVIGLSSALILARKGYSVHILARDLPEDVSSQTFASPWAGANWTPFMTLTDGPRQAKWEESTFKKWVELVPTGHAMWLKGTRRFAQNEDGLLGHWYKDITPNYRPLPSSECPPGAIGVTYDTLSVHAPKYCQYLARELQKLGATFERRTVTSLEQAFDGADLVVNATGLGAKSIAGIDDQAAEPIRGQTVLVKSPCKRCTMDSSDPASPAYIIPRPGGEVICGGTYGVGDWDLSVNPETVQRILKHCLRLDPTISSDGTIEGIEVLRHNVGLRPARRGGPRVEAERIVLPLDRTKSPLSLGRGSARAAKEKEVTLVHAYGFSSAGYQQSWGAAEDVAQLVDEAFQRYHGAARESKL
- Tm (Rhodotorula toruloides, pH 7.5, Thermal, CD, Potassium phosphate 50 mM, reversible: No): 50.2 °C and 48 °C
- Tm (Rhodotorula toruloides, pH 7.5, Thermal, DSC, Potassium phosphate 50 mM, reversible: No): 56.9 °C and 55.9 °C
- Tm (Rhodotorula toruloides, pH 7.5, Thermal, Fluorescence, Potassium phosphate 50 mM, NH4SCN 0.5 M, reversible: No): 39 °C and 39.7 °C

B12: DNA-binding protein 7d wild type, P39476 (protein)
chain: MATVKFKYKGEEKEVDISKIKKVWRVGKMISFTYDEGGGKTGRGAVSEKDAPKELLQMLEKQKK
- Tm (Saccharolobus solfataricus (strain ATCC 35092 / DSM 1617 / JCM 11322 / P2), pH 4.5, Thermal, NMR, Unknown): 60.9 °C
- unfolding free energy (Saccharolobus solfataricus (strain ATCC 35092 / DSM 1617 / JCM 11322 / P2), pH 6.1, 25 °C, GdnHCl, Fluorescence, MES 50 mM, NaCl 100 mM): 5.93 kcal/mol
- Tm [8]: 99 °C
- heat capacity change of unfolding [8]: 0.75 kcal/mol/K
- unfolding enthalpy (calorimetric) [8]: 65 kcal/mol

B13: Cytochrome c mitochondrial import factor CYC2 wild type, P38909 (protein)
chain: MLWKNYVLSSSRITRRLHKSPRKSSFSKNFFITGCLLTVGAVSSYLTYRYTSERENKHELSPSYFVKYKISHKRDIDSSHFLLEVTPLFKQKVNIWSLMTAENLWSVEIKQPEVMVVRNYTPLPLKFNPASKEIEILKDGDNADGKLSFYIKKYENGEVARWLHHLPKGHIIEIRGPFIDYEFPHLPNELKRSRDCLYMDNRNERGNNVRENSQFIYQPYDIMMFTAGTGIVTALQLLLTESPFRGTIKLFHTDKNIKQLGPLYPILLRLQASNRVQLKIFETDRQTKQDVLKSIQKSITKPYPYKGLLPFSNVNNKNIMPVLALVCGPESYISSISGRKYDLNQGPVGGLLSKEGWNSDNVYKLS
- unfolding free energy (Saccharomyces cerevisiae (strain ATCC 204508 / S288c), pH 6, 20 °C, GdnHCl, DSC, Sodium phosphate 0.1 M, reversible: yes): 4.2 kcal/mol
- denaturant m value [9]: 3.2 kcal/mol/M
- denaturant midpoint (higher = more stable) [9]: 1.5 M
- unfolding free energy [9]: 4.9 kcal/mol
- unfolding free energy (Saccharomyces cerevisiae (strain ATCC 204508 / S288c), pH 6, 20 °C, GdnHCl, Fluorescence, Sodium phosphate 0.1 M): 3.8 kcal/mol
- Tm [10]: 79.4 °C
- unfolding enthalpy (calorimetric) [10]: 113 kcal/mol
- unfolding enthalpy (van 't Hoff) [10]: 140 kcal/mol
- denaturant midpoint (higher = more stable) [11]: 1.49 M
- unfolding free energy [11]: 3.8 kcal/mol

B14: Holocytochrome-c synthase wild type, P06182 (protein)
chain: MGWFWADQKTTGKDIGGAAVSSMSGCPVMHESSSSSPPSSECPVMQGDNDRINPLNNMPELAASKQPGQKMDLPVDRTISSIPKSPDSNEFWEYPSPQQMYNAMVRKGKIGGSGEVAEDAVESMVQVHNFLNEGCWQEVLEWEKPHTDESHVQPKLLKFMGKPGVLSPRARWMHLCGLLFPSHFSQELPFDRHDWIVLRGERKAEQQPPTFKEVRYVLDFYGGPDDENGMPTFHVDVRPALDSLDNAKDRMTRFLDRMISGPSSSSSAP
- Tm [12]: 46.5 °C
- heat capacity change of unfolding [12]: 2 kcal/mol/K
- unfolding enthalpy (van 't Hoff) [12]: 79 kcal/mol

B15: NAD(P)H-dependent FMN reductase LOT6 wild type, Q07923 (protein)
chain: MKVGIIMGSVRAKRVCPEIAAYVKRTIENSEELIDQKLKIQVVDLQQIALPLYEDDDELIPAQIKSVDEYADSKTRSWSRIVNALDIIVFVTPQYNWGYPAALKNAIDRLYHEWHGKPALVVSYGGHGGSKCNDQLQEVLHGLKMNVIGGVAVKIPVGTIPLPEDIVPQLSVHNEEILQLLASCIETTRNK
- Tm (Saccharomyces cerevisiae (strain ATCC 204508 / S288c), pH 7.5, Thermal, CD, Tris-HCl 100 mM, reversible: No): 60.2 °C

B16: Triosephosphate isomerase wild type, P00942 (protein)
chain: MARTFFVGGNFKLNGSKQSIKEIVERLNTASIPENVEVVICPPATYLDYSVSLVKKPQVTVGAQNAYLKASGAFTGENSVDQIKDVGAKWVILGHSERRSYFHEDDKFIADKTKFALGQGVGVILCIGETLEEKKAGKTLDVVERQLNAVLEEVKDWTNVVVAYEPVWAIGTGLAATPEDAQDIHASIRKFLASKLGDKAASELRILYGGSANGSNAVTFKDKADVDGFLVGGASLKPEFVDIINSRN
- Tm [13]: 59 °C
- heat capacity change of unfolding [13]: 11.7 kcal/mol/K
- unfolding enthalpy (calorimetric) [13]: 318 kcal/mol
